Source: patent US20110136733A1 (IPSEN PHARMA S A S, published 2011)
Where no end group is shown, it is not given here.

T1: human recombinant GIP receptor (human, UniProt P48546 22-466)
T1 construct: whole, on cells; Membranes of CHO-K1 cells expressing the receptor; also called hGIP receptor
T1 sequence (looked up): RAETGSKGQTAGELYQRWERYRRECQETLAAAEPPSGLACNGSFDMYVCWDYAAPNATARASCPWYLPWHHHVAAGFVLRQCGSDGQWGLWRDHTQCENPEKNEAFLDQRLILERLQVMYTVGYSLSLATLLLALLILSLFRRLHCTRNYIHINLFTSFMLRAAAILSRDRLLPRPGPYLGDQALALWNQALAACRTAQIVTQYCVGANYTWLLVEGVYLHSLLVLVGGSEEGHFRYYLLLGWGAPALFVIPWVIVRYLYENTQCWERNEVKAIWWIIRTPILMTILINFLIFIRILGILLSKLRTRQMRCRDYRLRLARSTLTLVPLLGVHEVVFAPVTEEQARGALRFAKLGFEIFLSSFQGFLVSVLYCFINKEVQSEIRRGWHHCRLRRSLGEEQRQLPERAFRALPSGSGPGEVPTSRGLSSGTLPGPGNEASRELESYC


Legend:
[1] = target: T1, human recombinant GIP receptor; assay: [125I]GIP competition, membranes of CHO-K1 cells expressing human GIP receptor
[2] = target: T1, human recombinant GIP receptor; assay: [125I]GIP competition, membranes of CHO-K1 cells expressing human GIP receptor, same conditions as Table 2

| Binder | Ki [1] [nM] | Ki [2] [nM] |
| --- | --- | --- |
| YGEGTFISDYXIAMDKIHQQDFVNWLLAQKGKKNDWKHNITQH (A5c at 11; C-terminal free acid) [(Gly^2, A5c^11, His^43)hGIP(1-43)-OH] | 0.97 | – |
| YAPGTFISDYSIAMDKIHQQDFVNWLLAQKGKKNDWKHNITQ-OH [[Pro^3]hGIP(1-42)-OH] | – | 171 |
| YAEGTFISDYXIAMDKIHQQDFVNWLLAQKGKKNDWKHNIXQ (D-Ala at 2; A5c at 11 and 41; C-terminal free acid, X stands for the non-natural residue) [(D-Ala^2, A5c^11, 41)hGIP(1-42)-OH] | 0.36 | – |
| YAEGTFISDYXIAXDKIHQQDFVNWLLAQKGKKNDWKHNIXQ (D-Ala at 2; A6c at 11, 14 and 41; C-terminal free acid, X stands for the non-natural residue) [(D-Ala^2, A6c^11, 14, 41)hGIP(1-42)-OH] | 6.67 | – |
| XXEGTFISDYXIAXDKIHQQDFVNWLLAQKGKKNDWKHNITQ (NMe-Tyr at 1; Aib at 2; A5c at 11; Nle at 14; C-terminal free acid) [(NMe-Tyr^1, Aib^2, A5c^11, Nle^14)hGIP(1-42)-OH] | 0.19 | – |
